Consider 4 molecules from US11840574B2, “Anti-DR5 antibody and use thereof” (DONG-A ST CO., LTD., priority 2017, dated 2023).

Changes are numbered by the printed parent chain.

One may read the Kd as the constant that tells how readily two partners part at equilibrium. A low value points to a tighter complex. In general, Cmax refers to the maximum level reached in the sampled fluid or tissue.

Data set [1] has as its target T1, Human DR5 (Homo sapiens, UniProt O14763). The experiment in a line: Binding affinity of antibody to human DR5 (BIAcore, CM5 chip). The following applies: for Ka(1/Ms): association rate, Human DR5, 1:1 Langmuir binding model; for Kd: equilibrium dissociation constant, Human DR5. The protocol:
In order to measure affinity, human DR5 was coupled to carboxylated dextran biosensor chips (CM5, GE) according to the manufacturer's instruction. Association and dissociation rates were assessed by injecting IgG proteins that were 2-fold serially diluted to 5 nM, 2.5 nM, 1.25 nM, 0.625 nM, 0.313 nM, and 0.156 nM.
Association and dissociation rates were depicted in association and dissociation sensorgrams and calculated using a simple 1:1 Langmuir binding model (BIAcore X100 Evaluation Software, ver. 2.0). The equilibrium dissociation constants (KD), which is the ratio of dissociation constant (Kd) to association constant (Ka), were confirmed to be in the sub-nanomolar range. Measurements of the binding of antibody D0 and DA1 to DA35 of the present disclosure to DR5 are given in Table 11 below (antibody names are given as the names of the clones from which the antibodies were derived). A representative sensorgram for D0 is depicted in FIG. 1.
In general terms: In SPR one partner is held on a chip, and binding of the other changes the refractive index at the surface.

In data set [2] the target is T1, Human DR5. The experiment in a line: TRAIL competitive enzyme-linked immunosorbent assay. Format: binding. The settings on record: 0.01-400 nM of TRAIL protein, absorbance at 405 nm. As to the method:
In order to examine antigen-binding characteristics of the antibodies selected in Example 3, a TRAIL competitive enzyme-linked immunosorbent assay was conducted. ELISA plates were coated with 0.1 μg/ml human DR5 (R&D systems, U.S.A.) at 4° C. Thereafter, the plates were incubated with 0.01 nM-1440 nM of antibodies (D0, DA20, DA21, DA21, DA22, and DA23) together with 0.01-400 nM of TRAIL protein for 2 hours. After the plates were washed three times with PBST (0.1% bovine serum albumin and Tween-20 in PBS), HRP (horse radish peroxidase)-conjugated anti-human immunoglobulin Fc was added to each well and incubated for 1 hour. After three washes with PBST, color development was performed for 20 min with ABTS (Thermo, U.S.A.). When the color development reached to a certain level, the reaction was terminated with 1 N sulfuric acid. Absorbance at 405 nm was measured using a spectrophotometer (Molecular Device, U.S.A.) and is depicted in FIGS. 8a and 8b. The antibody AP disclosed in Example (7-1) was used as a control.

Data set [3] in a line: Pharmacokinetics of antibody in nude mice (plasma ELISA). It counts as in vivo. The settings on record: intravenous, 10 mg/kg. As to the method: In order to examine in vivo kinetics of the antibodies constructed above, blood half-life was evaluated in mice. Antibodies were intravenously injected at doses of 1-10 mg/kg into nude mice. Blood was sampled from the orbital vein from 5 min to 14 days after injection. The blood collection was conducted using heparinized capillary tubes. Plasma obtained by centrifugation of the blood samples was diluted at certain ratios and used as samples for ELISA evaluation. Human DR5 diluted to a concentration of 10 ng/ml was plated at 100 μl per well onto 96-well immune plates (Nunc, U.S.A.) and adsorbed to the wells for 12-14 hours. The plates were washed three times with buffer solution containing 0.1% Tween 20 and blocked with buffer solution containing bovine serum albumin (Sigma, U.S.A.) at room temperature for 1 hour. After three rounds of washing with buffer solution, the plates were incubated with each of the mouse plasma dilutions and a serial dilution of standard substance at room temperature for 2 to 3 hours. After three washes with buffer solution, a 1:20000 dilution of an HRP-conjugated anti-human immunoglobulin Fc (Fc-HRP) antibody (Bethyl, U.S.A.) was added at a volume of 100 μl per well and incubated at room temperature for 1 hour. After washing three times, 100 μl of a TMB solution (Sigma, U.S.A.) was added to each well and allowed to react. When the color development reached a certain level, the reaction was terminated with 0.2 N sulfuric acid solution. Absorbance at 450 nm was measured using a spectrophotometer (Molecular Device, U.S.A.). The antibody concentration in each plasma sample was calculated from the optical density (OD) measurements, and pharmacokinetic parameters were estimated using WinNonLin ver. 6.2.0.495.
Background: ELISA stands for enzyme-linked immunosorbent assay.

The subject of data set [4] is human colorectal cancer cell line Colo205. The experiment in a line: Cell death activity upon co-treatment with TRAIL, Colo205. It counts as cell-based. The settings on record: Colo205, antibody as low as 10 ng/ml, TRAIL 0.5, 1, 10 ng/ml. As to the method:
(§1) Antibody properties according to epitopes were analyzed in terms of cell death activity upon co-treatment with the constructed antibodies and TRAIL. In this test, the human colorectal cancer cell line Colo205 (ATCC, U.S.A.) and the human pancreatic cell line Miapaca-2 (ATCC, U.S.A.) were employed. The tumor cells were suspended at a concentration of 1×10^5 cells/ml and the suspensions were plated at 50 μl per well into 96-well culture plates, followed by incubation for 16-24 hours in a constant temperature and humidity chamber. Serial dilutions of the antibodies (0.1-10000 ng/ml) and TRAIL protein at determined concentrations (0.5, 1, 10 ng/ml) were applied in combination to the 96-well plates. After incubation for 48 to 72 hours at a constant temperature in a humidified condition, a resazurin solution (Invitrogen, U.S.A.) was added at an amount of 10 μl to per well. When the reaction reached a certain level after 1 to 2 hours, fluorescence was read at 590 nm using a spectrophotometer (Molecular Device). Cell viability was calculated as the percentage of relative fluorescence units (RFU) of a test substance-treated group (treated RFU) to the relative fluorescence units of a culture medium-treated group (untreated RFU) (Cell viability (%)=treated RFU/Untreated RFU×100).
(§2) Representative results are depicted in FIGS. 9a (Colo205) and 9b (Miapaca-2). […]

The test system of data set [5] is human pancreatic cell line Miapaca-2. The experiment in a line: Cell death activity upon co-treatment with TRAIL, Miapaca-2. Format: cell-based. The settings on record: Miapaca-2, antibody as low as 10 ng/ml, TRAIL 0.5, 1, 10 ng/ml. As to the method:
as §1, §2

B1: DA20: humanized or deimmunized variant of parental clone D0; CDRs SEQ ID NO 1, 2, 7 / 4, 10, 14 (antibody, V domains shown)
VH: EVQLVESGGGLVQPGGSLRLSCAASGFTFSSFNMLWVRQAPGKGLEWVAGIGKSDRYTGYGSAVKGRFTISRDDSKSTVYLQMNSLRAEDTAVYYCVRDAGSGCGSGGWTGACIDTWGQGTLVTVSS
VL: DIQMTQSPSSLSASVGDRVTITCSGGDSYAGSYYYGWYQQKPGKAPKTLIYNNNNRPSGVPSRFSGSRSGTDFTLTISSLQPEDFATYYCGSRDSAGMGAFGQGTKVEIK
In the case of B1, in data set [1], the “Ka(1/Ms)” value is on record as 1.00 × 10^06 1/Ms and the Kd was 0.012 nM. Also, the “antigen binding in the presence of TRAIL” value in data set [2] is listed as “maintained a certain level of antigen binding irrespective of TRAIL concentrations”.

B2: DA21: humanized or deimmunized variant of parental clone D0; CDRs SEQ ID NO 1, 2, 7 / 4, 10, 16 (antibody, V domains shown)
VH: B1 VH
VL: B1 VL with A96S, M98A, A100G
With B2, in data set [1], the “Ka(1/Ms)” value is recorded as 1.11 × 10^06 1/Ms and the Kd turned out to be 0.00643 nM. In data set [2], the “antigen binding in the presence of TRAIL” value was “maintained a certain level of antigen binding irrespective of TRAIL concentrations”.

B3: DA22: humanized or deimmunized variant of parental clone D0; CDRs SEQ ID NO 1, 2, 8 / 4, 10, 13 (antibody, V domains shown)
VH: B1 VH with G103P
VL: B1 VL with R68T, A96S, G97Y, M98V, A100I
For B3, in data set [1], the “Ka(1/Ms)” value is listed as 9.32 × 10^05 1/Ms and the affinity, expressed as Kd, was 0.0342 nM. Moreover, the “antigen binding in the presence of TRAIL” value in data set [2] is recorded as “maintained a certain level of antigen binding irrespective of TRAIL concentrations”. In data set [3], the highest concentration (Cmax) was 227.9 µg/mL, the “t½ Terminal (2 d~14 d)” value worked out at 8.37 days and the “t½ initial (−1 d)” value was 0.70 days.

B4: DA23: humanized or deimmunized variant of parental clone D0; CDRs SEQ ID NO 1, 2, 9 / 4, 10, 13 (antibody, V domains shown)
VH: B1 VH with G103P, S106K
VL: B1 VL with R68T, A96S, G97Y, M98V, A100I
For B4, in data set [1], the “Ka(1/Ms)” value is 6.96 × 10^05 1/Ms and the Kd amounted to 0.0403 nM. Moreover, in data set [2], the “antigen binding in the presence of TRAIL” value is reported as “maintained a certain level of antigen binding irrespective of TRAIL concentrations”. In addition, in data set [3], the maximum concentration (Cmax) turned out to be 195.8 µg/mL, the “t½ Terminal (2 d~14 d)” value turned out to be 7.97 days and the “t½ initial (−1 d)” value turned out to be 0.58 days. In addition, the “cell death activity in combination with TRAIL, compared to antibody alone” value in data set [4] is listed as “higher cell death activity”. Further, the “cell death activity in combination with TRAIL, compared to antibody alone” value in data set [5] is “higher cell death activity”.
